The target in data set [1] is EpiD (Staphylococcus epidermidis, UniProt P30197). As to conditions: cited from earlier work; for Reaction with EpiD: reducing conditions, reversed phase chromatography and ES-MS.
For data set [2], the target named is T1, flavoprotein EpiD (Staphylococcus epidermidis, UniProt P30197).
T1 construct: made in house; host or cells: E. coli K38 (pGP1-2, pT7-5epiD)
Kind of data set: EpiD enzyme assay, oxidative decarboxylation of single peptides (reversed phase chromatography, ES-MS). It is filed as biochemical, Staphylococcus epidermis. Set-up: key to Reaction with EpiD: +: reaction with EpiD; -: no reaction with EpiD occurred, this indicates that using the given assay conditions, no reaction product was detected. As to conditions: for Reaction with EpiD: single peptide determinations, 0.5-1 h at 37° C., pH 8.0, 3 mM dithiothreitol; for substrate of EpiD / reaction with EpiD (in words): single peptides. An excerpt: For the determination of the minimal size of the substrate, synthetic peptides with increasingly larger deletions of the amino terminus were used (Table 1). Reaction products were identified by their increasing hydrophobicity, increased absorption at 260 nm in 0.1% trifluoroacetic acid/H2 O/acetonitrile (FIGS. 19A and 19B), and the mass decrease of 46 Da as compared with the unmodified peptides. […] For a further study of the substrate specificity of EpiD, the heptapeptide SFNSYCC (SEQ ID NO: 2) was used. The serine and cysteine residues of the peptide SFNSYCC (SEQ ID NO: 2) form the COOH-terminal bicyclus of mature epidermin, and the possibility could not be excluded that amino acid exchanges in this peptide have an influence on the reaction with EpiD.
The method of the invention, which provides for the oxidative decarboxylation of a peptide, can be carried out in vitro under the following conditions, although it will be clear to those of ordinary skill in the art that the parameters given herein for carrying out the enzymatic reaction may be varied. The enzymatic reaction can be carried out at a temperature of 37° C. in 20 mMTris/HCl buffer (pH 8.0) containing 3 mM dithiothreitol, 1-2 μg of EpiD (the concentration of which is determined according to the method of Bradford, Anal. Biochem. 72:248-254 (1976)), and 10-50 μg of peptide, in a total volume of 1 ml. The enzymatic reaction is carried out for between 0.5 and 1 h.
Purification of EpiD and Enzyme Assay--EpiD was purified as described previously using E. coli expression plasmid pT7-5apiD (Kupke, T. et al, J. Bacteriol. 174:5354-5361 (1992)). The concentration of the EpiD solution was determined according to Bradford (Bradford, M. M., Anal. Biochem. 72:248-254 (1976)); the concentrations of the precursor peptide solutions were estimated by the absorbance at 205 nm using an extinction coefficient of 31 for a protein solution of 1 mg/ml (Janson, J. C., & Ryden, L., Methods Enzymol. 193:441-455 (1990)); the synthetic peptic substrates were weighed out. The enzyme was assayed for 0.5-1 h at 37° C. in 20 mM Tris/HCl buffer (pH 8.0) containing 3 mM dithiothreitol, 1-2 μg of EpiD, and 10-25 μg of precursor peptide or 50 μg of synthetic peptide in a total volume of 1 ml. The reaction mixture was then separated by reversed phase chromatography using a μRPC C2/C18 SC 2.1/10 column (Pharmacia Biotech Inc.). Peptides were eluted with a linear gradient of 0-50% acetronitrile, 0.1% trifluoroacetic acid in 3.8 ml with a flow rate of 200 μl/min. The absorbance was measured simultaneously at 214, 260, and 280 nm. The peptides were collected by the peak fractionation method, dried with a vacuum concentrator, stored at -70° C., dissolved in 30% acetonitrile, and analyzed by ES-MS.

Data set [3] concerns the target T1, flavoprotein EpiD. The experiment in a line: Incubation of peptide libraries with EpiD, ES-MS and neutral loss mass spectrometry. It is filed as biochemical, Staphylococcus epidermis. Particulars: ES-MS and neutral loss scans. As for the experimental part:
Heptapeptide sublibraries with one variable amino acid residue (wherein the variable amino acid residue can be any one of the 20 common amino acids Ala, Arg, Asn, Asp, Cys, Gln, Glu, Gly, His, Ile, Leu, Lys, Met, Phe, Pro, Ser, Thr, Trp, Tyr, or Val) at positions 1-7 of the peptide substrate S^1 FNSYCC^7 (SEQ ID NO: 2) were synthesized and incubated with EpiD. Peptides were identified by their masses using product ion scans and neutral loss scans and by comparison of the mass spectra obtained after various incubation times. The heptapeptides with a single amino acid substitution at positions 1-4 were substrates of EpiD (Table 2). At positions 5-7 of the peptide, not all amino acid residues were possible, so the last three amino acids determined the substrate specificity for EpiD (Table 2). […]
Peptide libraries were dissolved to a concentration of 1-2 mg/ml in 20 mM Tris/HCl buffer (pH 8.0) containing 3 mM dithiothreitol. […] Neutral loss scans were recorded after 3 h of incubation.
Electrospray and Tandem Mass Spectrometry--Electrospray mass spectra (Bruins, A. P., et al., Anal. Chem. 59:2642-2646 (1987); Covey, T. R., et al., Rapid Commun. Mass Spectrom. 2:249-256 (1988)) were recorded on a triple quadrupole mass spectrometer API III with a mass range of m/z 10-2400 equipped with a nebulizer-assisted electrospray ("ion spray") source (Sciex, Thornbill, Ontario, Canada). […]

Data set [4] is described as follows: Determination of the isoelectric point by isoelectric focusing and immunoblot. In kind it is physicochemical. Particulars: most basic band used. As for the experimental part: Therefore, the modified peptides should be more basic than the educts. In order to verify this hypothesis, the isoelectric points of the products and the educts were determined. […] All of the bands were more basic than the educts, and for determination of the isoelectric points, the most basic bands were used. In the case of EpiAR-1Q -46 Da, the most basic band was the most intense band.
The peptide mixture Serva No. 39211 was used as an isoelectric focusing standard. Isoelectric focusing was carried out according to the instruction manual of Serva. The focused peptides were blotted on nitrocellulose and detected with an anti-MBP-EpiA antiserum (Kupke, T., et al., FEMS Lett. 112:43-48 (1993)) using the ECL system (Amersham Corp.).

Non-standard residues stand in square brackets, D forms with d. No end group written: not given here. hCys = N[C@@H](CCS)C(=O)O

T1 sequence (P30197 whole entry): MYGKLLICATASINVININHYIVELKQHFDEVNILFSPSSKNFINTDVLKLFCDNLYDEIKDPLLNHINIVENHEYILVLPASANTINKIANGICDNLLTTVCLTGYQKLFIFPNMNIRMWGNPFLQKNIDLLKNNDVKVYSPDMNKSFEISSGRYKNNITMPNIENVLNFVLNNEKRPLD
EpiD, sequence (P30197 whole entry): as above

For the compound `[Zn+2]` [Zn^2+, reference compound], the “effect on the EpiD reaction” value in data set [1] is on record as “inhibited”.
Consider “K-EpiA (MEAVKEKNDLFNLDVKVNAKESNDSGAEPRIASKFICTPGCAKTGSFNSYCC)”, for which the “Reaction with EpiD” value in data set [2] was “+”.
For the compound SFNSMCC, the “substrate of EpiD / reaction product in library (in words)” value in data set [3] is given as “weak”.
As to “EpiAC + 22S (MEAVKEKNDLFNLDVKVNAKESNDSGAEPRIASKFICTPGCAKTGSFNSYCC)”, in data set [2], the “Reaction with EpiD” value is on record as “-” and the “substrate of EpiD / reaction with EpiD (in words)” value was “No reaction occurred”.
For “SFNSYCC--NH2 (SFNSYCC-NH2; cysteine pairing not given here) [the amide of SFNSYCC]” the same measures were “-” and “not substrates of EpiD”.
For the compound “EpiAS + 19A (MEAVKEKNDLFNLDVKVNAKESNDSGAEPRIASKFICTPGCAKTGSFNSYCC)”, in data set [2], the “Reaction with EpiD” value is listed as “+” and the “substrate of EpiD / reaction with EpiD (in words)” value was “substrate for oxidative decarboxylation”.
Regarding “Proepidermin: COOH-terminal proepidermin fragment of EpiA (amino acids +1 to +22) (IASKFICTPGCAKTGSFNSYCC)”, the results for the “Reaction with EpiD” value in data set [1] and in data set [2] were “reacts” and “+”, respectively.
Take SFNSYGC: the “Reaction with EpiD” value in data set [2] is recorded as “-”.
“SFNSYCHCy (SFNSYC[hCys]; cysteine pairing not given here) [peptide SFNSYC with COOH-terminal homocysteine residue]”: in data set [2], the “Reaction with EpiD” value was “-” and the “substrate of EpiD / reaction with EpiD (in words)” value is reported as “not substrates of EpiD”.
Regarding “Synthetic proepidermin: chemically synthesized proepidermin (amino acids +1 to +22 of EpiA) (IASKFICTPGCAKTGSFNSYCC)”, the “Reaction with EpiD” value in data set [2] is on record as “+”.
For “EpiAdesC^+22 (MEAVKEKNDLFNLDVKVNAKESNDSGAEPRIASKFICTPGCAKTGSFNSYC)”, in data set [2], the “Reaction with EpiD” value is recorded as “-” and the “substrate of EpiD / reaction with EpiD (in words)” value was “not all peptides with a COOH-terminal cysteine residue were a substrate of EpiD”.
In data set [4], “EpiAR-1Q: mutated EpiA with a mutation in the cleavage sequence of the EpiA leader (MEAVKEKNDLFNLDVKVNAKESNDSGAEPRIASKFICTPGCAKTGSFNSYCC)” had an isoelectric point of 5.0 pH. The “Reaction with EpiD” value in data set [1] was “reacts”; in data set [2] it was “+”.

(Values after patent US5962253A, “Oxidative decarboxylation of peptides catalyzed by flavoprotein EpiD” (Boehringer Ingelheim International GmbH, priority 1996, dated 1999).)
